Laboratory results: article PMC3217859, “Protein phosphatase 2a (PP2A) binds within the oligomerization domain of striatin and regulates the phosphorylation and activation of the mammalian Ste20-Like kinase Mst3” (BMC Biochemistry, 2011)

Experiments:
[1] = target: T1, HA-tagged K270Stop striatin (human, UniProt O43815 1-269); experiment: co-IP; anti-HA immunoprecipitates (12CA5 with protein A-Sepharose, or F7 anti-HA-agarose when probing for Mst3 or Mst4; 1.5 h, 4°C) of lysates (1% Nonidet P-40, 0.135 M NaCl, 10% glycerol, 20 mM Tris pH 8.0) of HEK293 cells transfected with HA-striatins; endogenous partners by immunoblot, partner/HA-striatin ratio by chemilumimager against wild type; 50 mM NaF and 100 nM okadaic acid in the lysis buffer in the …; settings: partners not purified
T1 construct: striatin, human, C-terminal truncation by a stop codon at K270; source: HEK293, transfected, in lysate; not shown: HA, N-terminal, kept
T1 sequence (looked up): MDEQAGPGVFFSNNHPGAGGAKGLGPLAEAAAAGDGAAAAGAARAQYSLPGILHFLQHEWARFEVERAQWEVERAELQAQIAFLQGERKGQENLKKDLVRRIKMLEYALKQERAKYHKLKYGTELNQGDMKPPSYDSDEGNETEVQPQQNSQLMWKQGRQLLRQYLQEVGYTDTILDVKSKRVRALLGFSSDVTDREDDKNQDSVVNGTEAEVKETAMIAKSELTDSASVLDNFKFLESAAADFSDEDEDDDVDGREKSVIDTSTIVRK

[2] = target: T2, HA-tagged F457Stop striatin (human, UniProt O43815 1-456); experiment: as above; settings: partners not purified
T2 construct: striatin, human, C-terminal truncation by a stop codon at F457 (loss of seven of eight WD-repeats); residues 1-456 by the mutant's name; source: HEK293, transfected, in lysate; not shown: HA, N-terminal, kept
T2 sequence (looked up): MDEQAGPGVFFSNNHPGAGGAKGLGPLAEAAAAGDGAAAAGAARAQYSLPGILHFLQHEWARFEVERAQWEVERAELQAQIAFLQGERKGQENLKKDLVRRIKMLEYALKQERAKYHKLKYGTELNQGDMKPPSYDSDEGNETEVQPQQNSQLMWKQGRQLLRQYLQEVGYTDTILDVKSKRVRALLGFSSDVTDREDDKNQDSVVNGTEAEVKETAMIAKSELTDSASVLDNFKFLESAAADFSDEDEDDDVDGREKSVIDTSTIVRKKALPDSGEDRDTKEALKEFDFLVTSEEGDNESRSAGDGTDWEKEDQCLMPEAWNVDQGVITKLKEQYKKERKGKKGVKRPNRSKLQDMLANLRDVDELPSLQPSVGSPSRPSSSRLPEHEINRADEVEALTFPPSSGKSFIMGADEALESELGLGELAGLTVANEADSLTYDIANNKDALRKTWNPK

B1: Mob3/phocein (natural protein, human (endogenous in HEK293), UniProt Q9Y3A3 1-225, looked up)
chain: MVMAEGTAVLRRNRPGTKAQDFYNWPDESFDEMDSTLAVQQYIQQNIRADCSNIDKILEPPEGQDEGVWKYEHLRQFCLELNGLAVKLQSECHPDTCTQMTATEQWIFLCAAHKTPKECPAIDYTRHTLDGAACLLNSNKYFPSRVSIKESSVAKLGSVCRRIYRIFSHAYFHHRQIFDEYENETFLCHRFTKFVMKYNLMSKDNLIVPILEEEVQNSVSGESEA
notes: source: endogenous, HEK293 lysate
percent reduction in binding against wild-type striatin [1]: 45% | percent reduction in binding against wild-type striatin [2]: 29%
